Experimental data as given in patent US20260209291A1 (KAMINO, published 2026).
Read-outs that look alike come from different tables or passages of the source. Each block holds one binder with its values, some of them ahead of it.

Tests used:
[1] = molecular target: VEGF (Vascular Endothelial Growth Factor) (UniProt P15692-4 27-191); experiment: SPR (Biacore 3000, 25 °C): compound captured to about 1,000 RU on a CM5 chip with the mouse antibody capture kit, VEGF injected for 120 s, 300 s dissociation
Protocol: (§1) Surface plasmon resonance (SPR) experiments were carried out on a Biacore 3000 (Cytiva). A CM5 chip for capture of the compounds was prepared according to the instructions of the mouse antibody capture kit (Cytiva, #BR100838). VGFR(½)-mFc-FSD1, TNFR2-mFc-FSD1, VGFR(½)/FST291-mFc, TNFR2/FST291-mFc, VGFR(½)-hFc (Aflibercept), TNFR2-hFc (Etanercept), and FST315dHBS-mFc (SEQ ID NO: 30, SEQ ID NO: 31) were captured to approximately 1,000 RU (Resonance Units). TNFα (R&D Systems, #210-TA-005,) or VEGF (R&D Systems, #293-VE-010) were then injected for 120 s followed by a 300 s dissociation phase. At the end of each binding cycle, non-covalently attached molecules were removed from both surfaces by a 180 s regeneration with 10 mM glycine, pH 1.7. All proteins were diluted in running buffer ([…], pH 7.5, […], 2 mM CaCl₂) and 0.05% Tween 20). A flow rate of 30 μl/min was used in all steps of the experiments. Binding analysis was performed at 25° C., and data were collected at a rate of 1 Hz. Using the BIAevaluation 4.1.1 software (Cytiva), recorded signals were referenced; the signal from the in-line reference flow cell was subtracted as was the signal from a blank run (0 nM analyte).

myostatin [2] = molecular target: T1, myostatin (Homo sapiens (Human), UniProt O14793 267-375); experiment: cell-based or functional assay
T1 sequence: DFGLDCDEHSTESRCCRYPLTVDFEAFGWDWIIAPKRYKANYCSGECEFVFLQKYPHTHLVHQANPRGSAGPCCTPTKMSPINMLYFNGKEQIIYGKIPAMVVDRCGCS

activin A [3] = molecular target: T2, activin A (human, UniProt P08476 311-426); experiment: cell-based or functional assay
T2 sequence: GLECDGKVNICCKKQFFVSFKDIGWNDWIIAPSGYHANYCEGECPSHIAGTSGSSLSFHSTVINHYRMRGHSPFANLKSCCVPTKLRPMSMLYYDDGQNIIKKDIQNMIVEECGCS

[4] = molecular target: T3, GDF11 (Growth Differentiation Factor 11) (Homo sapiens (Human), UniProt O95390 299-407); experiment: cell-based or functional assay
T3 sequence: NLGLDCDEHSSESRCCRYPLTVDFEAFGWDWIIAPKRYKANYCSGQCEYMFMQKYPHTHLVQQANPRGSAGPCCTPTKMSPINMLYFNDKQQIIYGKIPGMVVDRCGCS

myostatin [5] = molecular target: T1, myostatin; experiment: cell-based or functional assay; remark: listed apart in the source
activin A [6] = molecular target: T2, activin A; experiment: cell-based or functional assay; remark: listed apart in the source
[7] = molecular target: T3, GDF11 (Growth Differentiation Factor 11); experiment: cell-based or functional assay; remark: listed apart in the source
[8] = molecular target: TNFα (Tumor Necrosis Factor alpha) (UniProt P01375 77-233); experiment: SPR (Biacore 3000, 25 °C): compound captured to about 1,000 RU on a CM5 chip with the mouse antibody capture kit, TNFα injected for 120 s, 300 s dissociation
Protocol: as §1

[9] = molecular target: T3, GDF11 (Growth Differentiation Factor 11); experiment: cell-based or functional assay; remark: listed apart in the source
activin A [10] = molecular target: T2, activin A; experiment: cell-based or functional assay; remark: listed apart in the source
myostatin [11] = molecular target: T1, myostatin; experiment: cell-based or functional assay; remark: listed apart in the source
activin A [12] = molecular target: T2, activin A; experiment: cell-based or functional assay; remark: listed apart in the source
[13] = molecular target: T3, GDF11 (Growth Differentiation Factor 11); experiment: cell-based or functional assay; remark: listed apart in the source
myostatin [14] = molecular target: T1, myostatin; experiment: cell-based or functional assay; remark: listed apart in the source

TNFα (Tumor Necrosis Factor alpha), sequence (P01375 77-233 limits assumed): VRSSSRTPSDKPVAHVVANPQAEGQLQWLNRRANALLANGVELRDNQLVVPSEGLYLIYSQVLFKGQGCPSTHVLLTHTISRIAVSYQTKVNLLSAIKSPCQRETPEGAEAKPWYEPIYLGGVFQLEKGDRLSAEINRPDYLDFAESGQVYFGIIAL
VEGF (Vascular Endothelial Growth Factor), sequence (P15692 other isoform, or with tags, fused parts or gaps limits assumed): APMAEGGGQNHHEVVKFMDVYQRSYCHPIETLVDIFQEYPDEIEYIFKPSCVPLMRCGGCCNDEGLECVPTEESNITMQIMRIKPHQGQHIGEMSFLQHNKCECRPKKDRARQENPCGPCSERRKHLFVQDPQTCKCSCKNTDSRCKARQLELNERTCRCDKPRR

B2: TNFR2/FST291-mFc (Fc fusion)
chain 1: GNCWLRQAKNGRCQVLYKTELSKEECCSTGRLSTSWTEEDVNDNTLFKWMIFNGGAPNCIPCKETCENVDCGPGKKCRMNKKNKPRCVCAPDCSNITWKGPVCGLDGKTYRNECALLKARCKEQPELEVQYQGRCKKTCRDVFCPGSSTCVVDQTNNAYCVTCNRICPEPASSEQYLCGNDGVTYSSACHLRKATCLLGRSIGLAYEGKCIKAKSCEDIQCTGGKKCLWDFKVGRGRCSLCDELCPDSKSDEPVCASDNATYASECAMKEAACSSGVLLEVKHSGSCNSISPRGPTIKPCPPCKCPAPNLLGGPSVFIFPPKIKDVLMISLSPIVTCVVVDVSEDDPDVQISWFVNNVEVHTAQTQTHREDYNSTLRVVSALPIQHQDWMSGKEFKCKVNNKDLPAPIERTISKPKGSVRAPQVYVLPPPEEEMTEKQVTLTCMVTDFMPEDIYVEWTNNGKTELNYKNTEPVLDSDGSYFMYSWLRVEKKNWVERNSYSCSVVHEGLHNHHTTKSFSRTPGK
chain 2: LPAQVAFTPYAPEPGSTCRLREYYDQTAQMCCSKCSPGQHAKVFCTKTSDTVCDSCEDSTYTQLWNWVPECLSCGSRCSSDQVETQACTREQNRICTCRPGWYCALSKQEGCRLCAPLRKCRPGFGVARPGTETSDVVCKPCAPGTFSNTTSSTDICRPHQICNVVAIPGNASMDAVCTSTSPTRSMAPGAVHLPQPVSTRSQHTQPTPEPSTAPSTSFLLPMGPSPPAEGSTGDPRGPTIKPCPPCKCPAPNLLGGPSVFIFPPKIKDVLMISLSPIVTCVVVDVSEDDPDVQISWFVNNVEVHTAQTQTHREDYNSTLRVVSALPIQHQDWMSGKEFKCKVNNKDLPAPIERTISKPKGSVRAPRVYVLPPPEEEMTKKQVTLTCMVTDFMPEDIYVEWTNNGKTELNYKNTEPVLVSDGSYTMYSKLRVEKKNWVERNSYSCSVVHEGLHNHHTTKSFSRTPGKLVPRGSHHHHHH
notes: Fc heterodimer (knobs-in-holes, murine IgG2A); also called type 4 design compound
IC50, neutralisation of 1 ng/mL myostatin (pSmad2/3 luciferase reporter, HEK293 cells) [cont. C] (myostatin [5]): 1610 pM | IC50, neutralisation of 1 ng/mL activin A (pSmad2/3 luciferase reporter, HEK293 cells) [cont. C] (activin A [6]): 525 pM | IC50, neutralisation of 1 ng/mL GDF11 (pSmad2/3 luciferase reporter, HEK293 cells) [cont. C] [7]: 4490 pM | binding result [8]: binds

B3: VGFR(½)-mFc-FSD1 (Fc fusion)
chain: SDTGRPFVEMYSEIPEIIHMTEGRELVIPCRVTSPNITVTLKKFPLDTLIPDGKRIIWDSRKGFIISNATYKEIGLLTCEATVNGHLYKTNYLTHRQTNTIIDVVLSPSHGIELSVGEKLVLNCTARTELNVGIDFNWEYPSSKHQHKKLVNRDLKTQSGSEMKKFLSTLTIDGVTRSDQGLYTCAASSGLMTKKNSTFVRVHEKPRGPTIKPCPPCKCPAPNLLGGPSVFIFPPKIKDVLMISLSPIVTCVVVDVSEDDPDVQISWFVNNVEVHTAQTQTHREDYNSTLRVVSALPIQHQDWMSGKEFKCKVNNKDLPAPIERTISKPKGSVRAPQVYVLPPPEEEMTKKQVTLTCMVTDFMPEDIYVEWTNNGKTELNYKNTEPVLDSDGSYFMYSKLRVEKKNWVERNSYSCSVVHEGLHNHHTTKSFSRTPGKETCENVDCGPGKKCRMNKKNKPRCVCAPDCSNITWKGPVCGLDGKTYRNECALLKARCKEQPELEVQYQGRCK
notes: expressed in CHO cells; also called VGFR(1/2)-mFc-FSD1; type 2 design compound
IC50, neutralisation of 1 ng/mL GDF11 (pSmad2/3 luciferase reporter, HEK293 cells) [cont. C] [9]: 21 nM | binding result [1]: binds | IC50, neutralisation of 1 ng/mL activin A (pSmad2/3 luciferase reporter, HEK293 cells) (activin A [10]): 18 nM | IC50, neutralisation of 1 ng/mL myostatin (pSmad2/3 luciferase reporter, HEK293 cells) [cont. B] (myostatin [11]): 37 nM

B5: TNFR2-mFc-FSD1 (Fc fusion)
chain: LPAQVAFTPYAPEPGSTCRLREYYDQTAQMCCSKCSPGQHAKVFCTKTSDTVCDSCEDSTYTQLWNWVPECLSCGSRCSSDQVETQACTREQNRICTCRPGWYCALSKQEGCRLCAPLRKCRPGFGVARPGTETSDVVCKPCAPGTFSNTTSSTDICRPHQICNVVAIPGNASMDAVCTSTSPTRSMAPGAVHLPQPVSTRSQHTQPTPEPSTAPSTSFLLPMGPSPPAEGSTGDPRGPTIKPCPPCKCPAPNLLGGPSVFIFPPKIKDVLMISLSPIVTCVVVDVSEDDPDVQISWFVNNVEVHTAQTQTHREDYNSTLRVVSALPIQHQDWMSGKEFKCKVNNKDLPAPIERTISKPKGSVRAPQVYVLPPPEEEMTKKQVTLTCMVTDFMPEDIYVEWTNNGKTELNYKNTEPVLDSDGSYFMYSKLRVEKKNWVERNSYSCSVVHEGLHNHHTTKSFSRTPGKETCENVDCGPGKKCRMNKKNKPRCVCAPDCSNITWKGPVCGLDGKTYRNECALLKARCKEQPELEVQYQGRCK
notes: expressed in CHO cells; also called type 2 design compound
binding result [8]: binds

Continued, values first:

binding result [1]: binds | IC50, neutralisation of 1 ng/mL myostatin (pSmad2/3 luciferase reporter, HEK293 cells) [cont. B] (myostatin [2]): 1640 pM | IC50, neutralisation of 1 ng/mL activin A (pSmad2/3 luciferase reporter, HEK293 cells) [cont. B] (activin A [3]): 584 pM | IC50, neutralisation of 1 ng/mL GDF11 (pSmad2/3 luciferase reporter, HEK293 cells) [cont. B] [4]: 3450 pM
B1: VGFR(½)/FST291-mFc (Fc fusion)
chain 1: GNCWLRQAKNGRCQVLYKTELSKEECCSTGRLSTSWTEEDVNDNTLFKWMIFNGGAPNCIPCKETCENVDCGPGKKCRMNKKNKPRCVCAPDCSNITWKGPVCGLDGKTYRNECALLKARCKEQPELEVQYQGRCKKTCRDVFCPGSSTCVVDQTNNAYCVTCNRICPEPASSEQYLCGNDGVTYSSACHLRKATCLLGRSIGLAYEGKCIKAKSCEDIQCTGGKKCLWDFKVGRGRCSLCDELCPDSKSDEPVCASDNATYASECAMKEAACSSGVLLEVKHSGSCNSISPRGPTIKPCPPCKCPAPNLLGGPSVFIFPPKIKDVLMISLSPIVTCVVVDVSEDDPDVQISWFVNNVEVHTAQTQTHREDYNSTLRVVSALPIQHQDWMSGKEFKCKVNNKDLPAPIERTISKPKGSVRAPQVYVLPPPEEEMTEKQVTLTCMVTDFMPEDIYVEWTNNGKTELNYKNTEPVLDSDGSYFMYSWLRVEKKNWVERNSYSCSVVHEGLHNHHTTKSFSRTPGK
chain 2: SDTGRPFVEMYSEIPEIIHMTEGRELVIPCRVTSPNITVTLKKFPLDTLIPDGKRIIWDSRKGFIISNATYKEIGLLTCEATVNGHLYKTNYLTHRQTNTIIDVVLSPSHGIELSVGEKLVLNCTARTELNVGIDFNWEYPSSKHQHKKLVNRDLKTQSGSEMKKFLSTLTIDGVTRSDQGLYTCAASSGLMTKKNSTFVRVHEKPRGPTIKPCPPCKCPAPNLLGGPSVFIFPPKIKDVLMISLSPIVTCVVVDVSEDDPDVQISWFVNNVEVHTAQTQTHREDYNSTLRVVSALPIQHQDWMSGKEFKCKVNNKDLPAPIERTISKPKGSVRAPRVYVLPPPEEEMTKKQVTLTCMVTDFMPEDIYVEWTNNGKTELNYKNTEPVLVSDGSYTMYSKLRVEKKNWVERNSYSCSVVHEGLHNHHTTKSFSRTPGKLVPRGSHHHHHH
notes: Fc heterodimer (knobs-in-holes, murine IgG2A); also called VGFR(1/2)/FST291-mFc; type 4 design compound

IC50, neutralisation of 1 ng/mL activin A (pSmad2/3 luciferase reporter, HEK293 cells) (activin A [12]): 53 pM | IC50, neutralisation of 1 ng/mL GDF11 (pSmad2/3 luciferase reporter, HEK293 cells) [13]: 119 pM | IC50, neutralisation of 1 ng/mL myostatin (pSmad2/3 luciferase reporter, HEK293 cells) (myostatin [14]): 210 pM
B4: native full-length follistatin315 (FST315) (other)
chain: GNCWLRQAKNGRCQVLYKTELSKEECCSTGRLSTSWTEEDVNDNTLFKWMIFNGGAPNCIPCKETCENVDCGPGKKCRMNKKNKPRCVCAPDCSNITWKGPVCGLDGKTYRNECALLKARCKEQPELEVQYQGRCKKTCRDVFCPGSSTCVVDQTNNAYCVTCNRICPEPASSEQYLCGNDGVTYSSACHLRKATCLLGRSIGLAYEGKCIKAKSCEDIQCTGGKKCLWDFKVGRGRCSLCDELCPDSKSDEPVCASDNATYASECAMKEAACSSGVLLEVKHSGSCNSISEDTEEEEEDEDQDYSFPISSILEW
